Results taken from patent US11319368B2, “Treatment of hepatotoxicity with IL-11 antibody” (Singapore Health Services PTE LTD., priority 2019, dated 2022).

Tests used:
[1] = target: IL-11Rα; conditions: low affinity; cited from earlier work
[2] = system: small intestinal mucosa; conditions: 250 μg/kg; cited from earlier work
[3] = system: liver; conditions: single subcutaneous injection 500 μg kg^-1
Protocol: (A) Effect of recombinant human IL11 (rhIL11, 10 ng ml^−1) or recombinant mouse IL11 (rmIL11, 10 ng ml^−1) on ERK, JNK and CASP3 activation status in mouse hepatocytes. (B) ALT levels in mouse hepatocyte supernatant following stimulation by rmIL11 (10 ng ml^−1) or by increasing doses of rhIL11 (1, 5, 10, 15 and 20 ng ml^−1). (C) Schematic of mice receiving a single subcutaneous injection of either saline, rhIL11, or rmIl11 (500 μg kg^−1). (D) Western blot analysis of hepatic p-ERK, p-JNK, and Cl. […] Dose-dependent inhibition effect of rhIL11 on rmIL11-induced (K) ALT secretion and (L) CASP3 activation by mouse hepatocytes. (A, B, K, L) 24 h. (B, K) Data are shown as mean±SD; (E, G) Data are shown as box-and-whisker with median (middle line), 25th-75th percentiles (box), and minimum-maximum values (whiskers). (B, K) Two-tailed, Tukey-corrected Student's t-test; (E) two-tailed Student's t-test; (G) two-tailed Dunnett's test.
The levels of alanine transaminase (ALT) or aspartate aminotransferase (AST) in mouse serum and hepatocyte supernatant were measured using ALT Activity (ab105134, Abcam) or AST (ab105135, Abcam) Assay Kits. […] All colorimetric assays were performed according to the manufacturer's protocol.
Western blots were carried out from hepatocyte and liver tissue lysates. […] Protein concentrations were determined by Bradford assay (Bio-Rad). […]

[4] = target: T1, hIL11Rα (Homo sapiens, UniProt Q14626); conditions: rhIL11:hIL11Rα, reported previously, reconfirmed; cited from earlier work
T1 construct: purchased SinoBiological 10252-H08H
T1 sequence (Q14626 23-422): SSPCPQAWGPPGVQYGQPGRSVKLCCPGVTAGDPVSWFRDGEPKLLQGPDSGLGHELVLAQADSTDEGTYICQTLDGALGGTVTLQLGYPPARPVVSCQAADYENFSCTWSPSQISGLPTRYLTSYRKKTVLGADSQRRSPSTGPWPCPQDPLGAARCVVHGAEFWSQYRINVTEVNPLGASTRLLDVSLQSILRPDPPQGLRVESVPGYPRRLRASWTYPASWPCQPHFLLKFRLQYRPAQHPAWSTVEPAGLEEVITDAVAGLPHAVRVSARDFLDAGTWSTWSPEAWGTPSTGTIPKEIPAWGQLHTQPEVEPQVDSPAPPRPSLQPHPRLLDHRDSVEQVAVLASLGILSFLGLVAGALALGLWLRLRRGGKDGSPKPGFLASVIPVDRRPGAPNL

[5] = system: GVHD; conditions: 250 μg/kg, SC, twice daily; cited from earlier work
[6] = system: AILI; assay: rhIL11 or rmIL11 injection in APAP OD mice; type: in vivo, mouse
Protocol: FIGS. 10A to 10L. […] (A, B, K, L) 24 h. […] FC: fold change

[7] = system: Concanavalin A-induced T-cell-mediated hepatotoxicity; conditions: 50-500 μg/kg, IP 2 hours prior to Concanavalin A; cited from earlier work
[8] = system: nephrotoxic nephritis; conditions: 800-1360 μg/kg, IP 2 hours prior, then once daily for 6 days; cited from earlier work
[9] = system: collagen-induced arthritis; conditions: 0.3-100 μg/mouse/day, IP, 10 days; cited from earlier work
[10] = system: active Crohn's disease; conditions: 1 mg, weekly for 12 weeks, SC; 51 patients; cited from earlier work
[11] = system: kidney; conditions: 100-1000 μg/kg, IP; 10 minutes prior to or 30-60 minutes following IR; cited from earlier work
[12] = system: activated murine CD4+ve T-cells; conditions: 1-500 ng/ml; cited from earlier work
[13] = system: infection colitis; conditions: 5 μg/kg, IP; cited from earlier work
[14] = system: epithelial cell integrity; conditions: oral 0.5 mg/kg/day, 12 days; cited from earlier work
[15] = system: human hepatocytes; assay: rhIL11 versus rmIL11 on human hepatocytes; type: cell-based; conditions: 10 ng ml^-1
[16] = system: LPS-induced lung injury; conditions: 200 mg/kg, IP; cited from earlier work
[17] = system: mouse livers; conditions: 500 μg/kg, IV prior to WI/Rp injury; cited from earlier work
[18] = target: T2, mIL11Rα1 (Mus musculus, UniProt Q64385); assay: Competition ELISA, biotinylated rmIL11 binding to mIL11Rα1; conditions: two-fold dilutions from 5 μg ml^-1
T2 construct: purchased SinoBiological 50075-M08H
T2 sequence (Q64385 24-432): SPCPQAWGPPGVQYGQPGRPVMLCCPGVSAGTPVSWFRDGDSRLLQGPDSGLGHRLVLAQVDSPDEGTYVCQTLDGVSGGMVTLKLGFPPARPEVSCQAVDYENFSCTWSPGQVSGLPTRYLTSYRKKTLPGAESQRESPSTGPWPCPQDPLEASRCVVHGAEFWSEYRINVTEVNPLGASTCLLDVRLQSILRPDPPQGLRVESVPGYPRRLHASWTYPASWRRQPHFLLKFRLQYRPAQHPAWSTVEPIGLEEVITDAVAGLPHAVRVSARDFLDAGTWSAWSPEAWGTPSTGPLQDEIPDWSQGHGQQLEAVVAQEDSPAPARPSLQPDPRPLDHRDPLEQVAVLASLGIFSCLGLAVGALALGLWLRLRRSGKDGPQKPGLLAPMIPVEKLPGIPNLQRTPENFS
Protocol: Mouse IL11Rα (1 μg ml^−1 in PBS) was coated on a 96-well plate (overnight at 4° C.) and then blocked with blocking buffer (1% BSA in PBS containing 0.05% Tween20). Biotinylated mouse Il11 was prepared using Lightning-Link Rapid Biotin type A kit (Expedeon) according to the manufacturer's instructions. RhIL11 or rmIl11 was two-fold serially diluted in blocking buffer (starting at 5 μg ml^−1) and mixed with 0.01 μg ml^−1 biotinylated mouse IL11. The mixture of biotinylated mouse IL11 and either rhIL11 or rmIL11 was added into the coated plate and incubated for 1 h at RT. Color development was performed by adding Streptavidin-HRP (1:1000 in blocking buffer) and TMB chromogen solution (002023, ThermoFisher Scientific).

[19] = system: primary human hepatocytes; assay: IL11 stimulation of primary human hepatocytes: ERK, JNK, CASP3, PI staining; type: cell-based
Text: PI^+ve cells were quantified with the flow cytometer (Fortessa, BD Biosciences) and analyzed with FlowJo version 7 software (TreeStar).

[20] = system: mouse hepatocytes; assay: rhIL11 versus rmIL11 on mouse hepatocytes; type: cell-based
Text: Mouse hepatocytes (ABC-TC3928, AcceGen Biotech) were maintained in mouse hepatocyte medium (ABC-TM3928, AcceGen Biotech) supplemented with 1% Penicillin-streptomycin.

[21] = subcutaneous injection, APAP OD

B1: rhIL11: Recombinant human IL11 (UniProtKB:P20809, Genscript) (protein)
chain: PGPPPGPPRVSPDPRAELDSTVLLTRSLLADTRQLAAQLRDKFPADGDHNLDSLPTLAMSAGALGALQLPGVLTRLRADLLSYLRHVQWLRRAGGSSLKTLEPELGTLQARLDRLLRRLQLLMSRLALPQPPPDPPAPPLAPPSSAWGGIRAAHAILGGLHLTLDWAVRGLLLLKTRL
- Kd [1]: ~10 nM
- recovery from chemotherapy and radiation-induced mucosal damage [2]: Administration of rhIL11 (250 μg/kg) promotes recovery from
- hepatic ERK and JNK phosphorylation [3]: no effect on ERK or JNK phosphorylation
- Kd [4]: 50 nM
- Graft-vs-Host-Disease [5]: The authors conclude that IL11 prevents Graft-vs-Host-Disease
- hepatic ERK and JNK activation ([6]; 24 h following APAP administration): reduction in hepatic ERK and JNK activation
- hepatic GSH levels after APAP ([6]; APAP injury): restored APAP-induced GSH depletion
- reduction of serum ALT (severity of AILI) [6, 21]: 52%
- reduction of serum AST (severity of AILI) [6, 21]: 39%
- liver necrosis [7]: Concanavalin A-induced T-cell-mediated hepatotoxicity reduces
- survival [7]: liver necrosis and enhanced survival in mice.
- ECM deposition [8]: nephrotoxic nephritis and then once daily for 6 days suppresses
- inflammation [9]: days) reduces inflammation in a murine model of collagen-
- efficacy compared to prednisolone [10]: inferior as compared to prednisolone treatment.
- renoprotection [11]: The authors conclude that IL11 is renoprotective based on pre-
- immune response of CD4+ve T-cells [12]: CD4+ve T-cells and modulates, not represses, the immune
- infection colitis [13]: IP) ameliorates infection colitis and is cytoprotective in TLR2-
- epithelial cell integrity during cyclophosphamide chemotherapy [14]: The authors suggest that IL11 maintains epithelial cell integrity
- ERK and JNK signaling and hepatocyte death [15]: stimulated ERK and JNK signaling and hepatocyte death
- LPS-induced lung injury and lethality [16]: inflammatory activity that protects against LPS-induced lung
- protection from WI/Rp injury [17]: injury protects mouse livers. In vitro, pre-treatment with rhIL11
- competition with rmIL11 for binding to mIL11Rα1 [18]: competed with rmIL11 for binding to mIL11Rα1
- hepatocyte cell death, FACS (PI+ve cells) ([19]; 24 h): dose-dependent IL11-induced hepatocyte cell death
- ERK and JNK activation, concurrent with CASP3 cleavage ([19]; time course): late (>6 h) and sustained ERK and JNK activation
- ERK and JNK phosphorylation, CASP3 cleavage ([20]; 10 ng ml^-1, 24 h): had no effect
- mouse hepatocyte cell death (ALT in supernatant) ([20]; 24 h): did not
